# B1: lactoferrin: iron-binding cationic glycoprotein belonging to the family of transferrins; bovine lactoferrin used in the Examples (protein, UniProt P24627 20-708, looked up)
# Lactotransferrin: APRKNVRWCTISQPEWFKCRRWQWRMKKLGAPSITCVRRAFALECIRAIAEKKADAVTLDGGMVFEAGRDPYKLRPVAAEIYGTKESPQTHYYAVAVVKKGSNFQLDQLQGRKSCHTGLGRSAGWIIPMGILRPYLSWTESLEPLQGAVAKFFSASCVPCIDRQAYPNLCQLCKGEGENQCACSSREPYFGYSGAFKCLQDGAGDVAFVKETTVFENLPEKADRDQYELLCLNNSRAPVDAFKECHLAQVPSHAVVARSVDGKEDLIWKLLSKAQEKFGKNKSRSFQLFGSPPGQRDLLFKDSALGFLRIPSKVDSALYLGSRYLTTLKNLRETAEEVKARYTRVVWCAVGPEEQKKCQQWSQQSGQNVTCATASTTDDCIVLVLKGEADALNLDGGYIYTAGKCGLVPVLAENRKSSKHSSLDCVLRPTEGYLAVAVVKKANEGLTWNSLKDKKSCHTAVDRTAGWNIPMGLIVNQTGSCAFDEFFSQSCAPGADPKSRLCALCAGDDQGLDKCVPNSKEKYYGYTGAFRCLAEDVGDVAFVKNDTVWENTNGESTADWAKNLNREDFRLLCLDGTRKPVTEAQSCHLAVAPNHAVVSRSDRAAHVKQVLLHQQALFGKNGKNCPDKFCLFKSETKNLLFNDNTECLAKLGGRPTYEEYLGTEYVTAIANLKKCSTSPLLEACAFLTR
# Legend:
# [1] = system: Lactobacilli at the level of the vaginal flora; conditions: vaginal use; cited from earlier work
# [2] = system: Lactobacillus jensenii 25258; test: 96-well chequerboard growth assay (optical density over 48 hours), prebiotic effect; type: cell-based; conditions: bacteria exposed to the ingredient alone; FIG. 5
# Protocol: A stock solution of 8 mg/mL bovine lactoferrin, was prepared by adding the appropriate amount of sterile MilliQ water to the weighted compound, followed by vortexing and filter-sterilizing. A stock solution of 2 mg/ml of each of the carrageenans (κ-, I-, λ-) was prepared by adding the appropriate amount of sterile MilliQ water to the weighted compound, incubated at 37° C. for 30 minutes, followed by vortexing until clear, and filter-sterilizing. […] The stock solution of lactoferrin was serially diluted in a broth-based media (appropriate for growth of the particular microorganism to be assayed) along the rows of the microtiter plate. The stock solution of carrageenan (κ-, I-, or λ-) was serially diluted in a broth-based media (appropriate for growth of the particular microorganism) along the columns of the microtiter plate. The final volume of media in each well was 0.1 mL. Each well containing lactoferrin and/or carrageenan (κ-, I-, or λ-) was inoculated with log-phase bacteria/yeast at a concentration of 5×10^5 colony forming units (CFU)/well. […] After addition of the relevant microorganism, plates were sealed with optical quality film, and incubated within the plate reader at the appropriate growth temperature for the microorganism being assayed. The optical density (OD) was recorded every 15 minutes for a period of 48 hours to evaluate the microorganism growth and biomass formation.
molecule,measurement,setting,value
B1,presence of Lactobacilli at the level of the vaginal flora,[1],able to increase the presence of Lactobacilli
same,viability / phase of the bacterial growth cycle of L. jensenii 25258,[2],enters the death phase

# — patent publication US20250249076A1, “Composition Comprising a Combination of Lactoferrin and a Sulphated Polysaccharide” (Reckitt Benckiser Health Limited, priority 2022, published 2025)
